In the supplement of paper PMC9112550, “Optimization of the antimicrobial peptide Bac7 by deep mutational scanning” (BMC Biology, 2022):

Tested on: Escherichia coli TOP10
Assay: shrunken log2 fold change of peptide-encoding DNA abundance (4.5 h post-induction vs induction); higher = less antimicrobial activity (less host growth inhibition)
Settings: time post-induction: 4.5 h; library: site-saturation at positions 5, 18, 19, 20
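Note: peptides expressed intracellularly from a pBAD plasmid library in pooled LB shake-flask culture, induced with 0.3% L-arabinose, DNA abundance read by NGS, three biological replicates, DESeq2 with apeglm shrinkage.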

RRIRARPPRLPRPRPRPQHSPRP
shrunken log2 fold change: 0.283

RRIRVRPPRLPRPRPRPEQDPRP
shrunken log2 fold change: 0.173

RRIRVRPPRLPRPRPRPKFVPRP
shrunken log2 fold change: 0.11

RRIRRRPPRLPRPRPRPFHAPRP
shrunken log2 fold change: 0.201

RRIRMRPPRLPRPRPRPIVQPRP
shrunken log2 fold change: -0.0131

RRIRSRPPRLPRPRPRPKKIPRP
shrunken log2 fold change: 0.139

RRIRTRPPRLPRPRPRPLATPRP
shrunken log2 fold change: 0.0927

RRIRFRPPRLPRPRPRPMCMPRP
shrunken log2 fold change: -0.153

RRIRDRPPRLPRPRPRPCHCPRP
shrunken log2 fold change: -0.158

RRIRFRPPRLPRPRPRPQDRPRP
shrunken log2 fold change: -0.591

RRIRIRPPRLPRPRPRPLWGPRP
shrunken log2 fold change: 0.0579

RRIRERPPRLPRPRPRPKGAPRP
shrunken log2 fold change: 0.216

RRIRHRPPRLPRPRPRPDSSPRP
shrunken log2 fold change: 0.00209

RRIRDRPPRLPRPRPRPALVPRP
shrunken log2 fold change: 0.0217

RRIRSRPPRLPRPRPRPMSEPRP
shrunken log2 fold change: 0.0489

RRIRPRPPRLPRPRPRPAYEPRP
shrunken log2 fold change: 0.0834

RRIRERPPRLPRPRPRPRCRPRP
shrunken log2 fold change: 0.113

RRIRHRPPRLPRPRPRPFIRPRP
shrunken log2 fold change: 0.00659

RRIRGRPPRLPRPRPRPLWKPRP
shrunken log2 fold change: 0.819

RRIRTRPPRLPRPRPRPNDLPRP
shrunken log2 fold change: -0.354

RRIRKRPPRLPRPRPRPQGCPRP
shrunken log2 fold change: 0.421

RRIRNRPPRLPRPRPRPQHDPRP
shrunken log2 fold change: -0.25

RRIRCRPPRLPRPRPRPNRGPRP
shrunken log2 fold change: -0.00554

RRIRKRPPRLPRPRPRPQKAPRP
shrunken log2 fold change: -0.0155

RRIRQRPPRLPRPRPRPGMRPRP
shrunken log2 fold change: 0.941

RRIRQRPPRLPRPRPRPKVPPRP
shrunken log2 fold change: 0.105

RRIRERPPRLPRPRPRPDRGPRP
shrunken log2 fold change: 0.0208

RRIRFRPPRLPRPRPRPWTLPRP
shrunken log2 fold change: -0.259

RRIRIRPPRLPRPRPRPMKIPRP
shrunken log2 fold change: -0.167

RRIRVRPPRLPRPRPRPSSWPRP
shrunken log2 fold change: -0.062

RRIRFRPPRLPRPRPRPVVYPRP
shrunken log2 fold change: -0.127

RRIRERPPRLPRPRPRPQPAPRP
shrunken log2 fold change: 0.171

RRIRFRPPRLPRPRPRPAKYPRP
shrunken log2 fold change: -0.381

RRIRQRPPRLPRPRPRPIQRPRP
shrunken log2 fold change: -0.0376

RRIRQRPPRLPRPRPRPNLMPRP
shrunken log2 fold change: -0.196

RRIRVRPPRLPRPRPRPYQGPRP
shrunken log2 fold change: -0.236

RRIRERPPRLPRPRPRPLFKPRP
shrunken log2 fold change: -0.543

RRIRTRPPRLPRPRPRPEHVPRP
shrunken log2 fold change: 0.0823

RRIRCRPPRLPRPRPRPATPPRP
shrunken log2 fold change: 1.34

RRIRHRPPRLPRPRPRPYLAPRP
shrunken log2 fold change: -0.00514

RRIRERPPRLPRPRPRPICTPRP
shrunken log2 fold change: -0.249

RRIRARPPRLPRPRPRPSQAPRP
shrunken log2 fold change: 0.0359

RRIRVRPPRLPRPRPRPNETPRP
shrunken log2 fold change: -0.033

RRIRNRPPRLPRPRPRPWSHPRP
shrunken log2 fold change: -0.17

RRIRKRPPRLPRPRPRPNHHPRP
shrunken log2 fold change: -0.182

RRIRNRPPRLPRPRPRPIIWPRP
shrunken log2 fold change: -0.139

RRIRWRPPRLPRPRPRPKLCPRP
shrunken log2 fold change: 0.0167

RRIRSRPPRLPRPRPRPGEHPRP
shrunken log2 fold change: 0.0053

RRIRPRPPRLPRPRPRPPKSPRP
shrunken log2 fold change: 0.177

RRIRRRPPRLPRPRPRPWGHPRP
shrunken log2 fold change: -0.165

RRIRARPPRLPRPRPRPLSCPRP
shrunken log2 fold change: 0.214

RRIRGRPPRLPRPRPRPSQDPRP
shrunken log2 fold change: 0.296

RRIRCRPPRLPRPRPRPMFSPRP
shrunken log2 fold change: -0.48

RRIRSRPPRLPRPRPRPIFGPRP
shrunken log2 fold change: 0.0746

RRIRDRPPRLPRPRPRPRREPRP
shrunken log2 fold change: 0.281

RRIRDRPPRLPRPRPRPPHRPRP
shrunken log2 fold change: 0.195

RRIRERPPRLPRPRPRPQNMPRP
shrunken log2 fold change: -1.05

RRIRERPPRLPRPRPRPAPGPRP
shrunken log2 fold change: 0.325

RRIRGRPPRLPRPRPRPWELPRP
shrunken log2 fold change: 0.136

RRIRNRPPRLPRPRPRPRSTPRP
shrunken log2 fold change: -0.0419

RRIRFRPPRLPRPRPRPNNFPRP
shrunken log2 fold change: -0.383

RRIRVRPPRLPRPRPRPEYIPRP
shrunken log2 fold change: -0.00622

RRIRQRPPRLPRPRPRPPCEPRP
shrunken log2 fold change: -0.00701

RRIRDRPPRLPRPRPRPKWHPRP
shrunken log2 fold change: 0.179

RRIRHRPPRLPRPRPRPLHSPRP
shrunken log2 fold change: -0.151

RRIRHRPPRLPRPRPRPKWQPRP
shrunken log2 fold change: 0.0671

RRIRNRPPRLPRPRPRPTRDPRP
shrunken log2 fold change: 0.386

RRIRGRPPRLPRPRPRPMMGPRP
shrunken log2 fold change: 0.409

RRIRYRPPRLPRPRPRPNRLPRP
shrunken log2 fold change: -0.0455

RRIRYRPPRLPRPRPRPKICPRP
shrunken log2 fold change: -0.0342

RRIRYRPPRLPRPRPRPNPHPRP
shrunken log2 fold change: -0.639

RRIRARPPRLPRPRPRPYTEPRP
shrunken log2 fold change: -0.583

RRIRCRPPRLPRPRPRPMRLPRP
shrunken log2 fold change: 0.0914

RRIRERPPRLPRPRPRPKKDPRP
shrunken log2 fold change: -0.346

RRIRKRPPRLPRPRPRPKKMPRP
shrunken log2 fold change: 0.718

RRIRGRPPRLPRPRPRPDKMPRP
shrunken log2 fold change: 0.261

RRIRSRPPRLPRPRPRPVLVPRP
shrunken log2 fold change: 0.242

RRIRFRPPRLPRPRPRPRGHPRP
shrunken log2 fold change: 0.348

RRIRHRPPRLPRPRPRPIQFPRP
shrunken log2 fold change: -0.482

RRIRARPPRLPRPRPRPIFSPRP
shrunken log2 fold change: -0.00994

RRIRLRPPRLPRPRPRPGNTPRP
shrunken log2 fold change: -0.242

RRIRGRPPRLPRPRPRPNWAPRP
shrunken log2 fold change: 0.363

RRIRKRPPRLPRPRPRPAKCPRP
shrunken log2 fold change: 0.174

RRIRFRPPRLPRPRPRPACQPRP
shrunken log2 fold change: -0.0497

RRIRPRPPRLPRPRPRPKMDPRP
shrunken log2 fold change: 0.0116

RRIRARPPRLPRPRPRPVYLPRP
shrunken log2 fold change: -0.622

RRIRLRPPRLPRPRPRPGGWPRP
shrunken log2 fold change: 0.71

RRIRCRPPRLPRPRPRPNHEPRP
shrunken log2 fold change: -0.15

RRIRYRPPRLPRPRPRPCKHPRP
shrunken log2 fold change: -0.0625

RRIRYRPPRLPRPRPRPWQQPRP
shrunken log2 fold change: -0.273

RRIRQRPPRLPRPRPRPNHWPRP
shrunken log2 fold change: -0.176

RRIRWRPPRLPRPRPRPIHKPRP
shrunken log2 fold change: -0.0298

RRIRDRPPRLPRPRPRPSRAPRP
shrunken log2 fold change: 0.156

RRIRDRPPRLPRPRPRPVHFPRP
shrunken log2 fold change: 0.033

RRIRFRPPRLPRPRPRPDMKPRP
shrunken log2 fold change: -0.25

RRIRARPPRLPRPRPRPDPMPRP
shrunken log2 fold change: 1.02

RRIRQRPPRLPRPRPRPEACPRP
shrunken log2 fold change: -0.000521

RRIRYRPPRLPRPRPRPKRQPRP
shrunken log2 fold change: 0.00924

RRIRMRPPRLPRPRPRPFKPPRP
shrunken log2 fold change: -0.119

RRIRNRPPRLPRPRPRPRARPRP
shrunken log2 fold change: 0.856

RRIRDRPPRLPRPRPRPFIQPRP
shrunken log2 fold change: -0.238

RRIRQRPPRLPRPRPRPGVDPRP
shrunken log2 fold change: 0.244

RRIRTRPPRLPRPRPRPAQTPRP
shrunken log2 fold change: 0.712

RRIRWRPPRLPRPRPRPQQQPRP
shrunken log2 fold change: 0.108

RRIRGRPPRLPRPRPRPGTAPRP
shrunken log2 fold change: 2.14

RRIRYRPPRLPRPRPRPYVCPRP
shrunken log2 fold change: -1.14

RRIRRRPPRLPRPRPRPGQNPRP
shrunken log2 fold change: 0.203

RRIRERPPRLPRPRPRPPDVPRP
shrunken log2 fold change: -0.108

RRIRIRPPRLPRPRPRPIQIPRP
shrunken log2 fold change: -0.0257

RRIRKRPPRLPRPRPRPNTCPRP
shrunken log2 fold change: 0.0343

RRIRARPPRLPRPRPRPNTYPRP
shrunken log2 fold change: -0.627

RRIRYRPPRLPRPRPRPHEDPRP
shrunken log2 fold change: -0.172

RRIRERPPRLPRPRPRPVWSPRP
shrunken log2 fold change: 0.158

RRIRQRPPRLPRPRPRPGKAPRP
shrunken log2 fold change: 0.0185

RRIRCRPPRLPRPRPRPPKGPRP
shrunken log2 fold change: 0.405

RRIRYRPPRLPRPRPRPAAFPRP
shrunken log2 fold change: -0.757

RRIRLRPPRLPRPRPRPKATPRP
shrunken log2 fold change: -0.116

RRIRIRPPRLPRPRPRPDPQPRP
shrunken log2 fold change: -0.186

RRIRTRPPRLPRPRPRPPQWPRP
shrunken log2 fold change: 0.274

RRIRERPPRLPRPRPRPTEMPRP
shrunken log2 fold change: 0.0983

RRIRQRPPRLPRPRPRPYIQPRP
shrunken log2 fold change: -0.32

RRIRSRPPRLPRPRPRPWLEPRP
shrunken log2 fold change: -0.0707

RRIRMRPPRLPRPRPRPCSDPRP
shrunken log2 fold change: 0.0242

RRIRQRPPRLPRPRPRPTTGPRP
shrunken log2 fold change: 0.0143

RRIRCRPPRLPRPRPRPIHGPRP
shrunken log2 fold change: -0.33
